Experimental data: patent US20220315554A1, “COMPOUNDS COMPRISING A […] LIGAND AND USE THEREOF” (priority 2019, published 2022)
Numbered stars: 1 amine (or outer) side, 2 acyl side, 3 side chain; on linkers, the order of the positions; unused ones are H or OH. Bridge positions count the residues as written; N and C are the ends. * marks the point of attachment. mXylylene = c1cc(C[*:1])cc(C[*:2])c1; Hexanoyl = CCCCCC(=O)*

T1: Recombinant human FAP (R&D systems, #3715-SE) (human)
T1 sequence: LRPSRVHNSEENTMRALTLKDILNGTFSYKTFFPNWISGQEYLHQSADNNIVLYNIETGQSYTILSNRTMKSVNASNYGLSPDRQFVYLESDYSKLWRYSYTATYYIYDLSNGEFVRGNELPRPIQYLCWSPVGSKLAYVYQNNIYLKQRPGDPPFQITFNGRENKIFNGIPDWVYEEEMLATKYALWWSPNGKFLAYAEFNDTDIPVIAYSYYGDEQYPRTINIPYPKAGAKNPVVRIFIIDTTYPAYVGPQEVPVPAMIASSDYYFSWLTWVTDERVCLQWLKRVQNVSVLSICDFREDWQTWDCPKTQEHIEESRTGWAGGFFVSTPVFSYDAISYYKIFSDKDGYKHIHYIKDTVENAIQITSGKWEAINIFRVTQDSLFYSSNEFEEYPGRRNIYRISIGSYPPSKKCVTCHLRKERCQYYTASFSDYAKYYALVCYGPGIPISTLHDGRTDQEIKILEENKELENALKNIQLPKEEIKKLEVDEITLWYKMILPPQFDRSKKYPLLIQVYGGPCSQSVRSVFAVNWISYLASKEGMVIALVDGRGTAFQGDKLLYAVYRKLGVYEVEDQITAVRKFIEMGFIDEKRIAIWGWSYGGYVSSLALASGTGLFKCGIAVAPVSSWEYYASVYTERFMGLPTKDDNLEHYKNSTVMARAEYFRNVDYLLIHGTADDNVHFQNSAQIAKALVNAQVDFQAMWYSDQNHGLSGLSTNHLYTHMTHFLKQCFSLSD


Legend:
[1] = target: T2, human fibroblast activation protein (FAP) on FAP-expressing human WI-38 fibroblasts (human); experiment: competition FACS, WI-38 cells, vs Cy5-labeled compound; A: pIC50 >8.0; conditions: remark: other sources report otherwise
[2] = target: Recombinant human DPP4 (R&D systems, #9168-SE) (human)
[3] = target: recombinant human PREP (R&D systems, #4308-SE) (human)
Sequence of recombinant human PREP (R&D systems, #4308-SE) (human) (chain, as listed by the source limits assumed): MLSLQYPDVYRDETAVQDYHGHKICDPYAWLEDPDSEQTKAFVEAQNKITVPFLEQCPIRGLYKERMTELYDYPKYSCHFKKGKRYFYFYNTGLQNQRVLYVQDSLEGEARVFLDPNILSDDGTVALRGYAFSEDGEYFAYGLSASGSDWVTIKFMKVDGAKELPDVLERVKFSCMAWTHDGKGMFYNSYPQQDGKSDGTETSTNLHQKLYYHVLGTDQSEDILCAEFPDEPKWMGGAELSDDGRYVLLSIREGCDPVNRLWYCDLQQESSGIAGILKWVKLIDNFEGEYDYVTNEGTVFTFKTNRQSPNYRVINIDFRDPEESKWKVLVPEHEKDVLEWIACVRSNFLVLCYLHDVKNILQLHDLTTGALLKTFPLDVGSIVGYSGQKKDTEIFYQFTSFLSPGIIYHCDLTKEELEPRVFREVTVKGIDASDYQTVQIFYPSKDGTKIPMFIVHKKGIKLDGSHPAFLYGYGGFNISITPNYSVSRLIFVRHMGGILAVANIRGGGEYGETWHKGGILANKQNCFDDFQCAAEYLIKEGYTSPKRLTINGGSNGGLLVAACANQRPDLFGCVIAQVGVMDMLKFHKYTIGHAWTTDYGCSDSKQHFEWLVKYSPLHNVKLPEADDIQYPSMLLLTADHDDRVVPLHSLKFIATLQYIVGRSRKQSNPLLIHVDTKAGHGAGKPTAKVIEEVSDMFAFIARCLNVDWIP

[4] = target: T2, human fibroblast activation protein …; experiment: competition FACS, WI-38 cells, vs Cy5-labeled compound; D: pIC50 ≤6.0; conditions: remark: other sources report otherwise
[5] = target: T1, Recombinant human FAP (R&D systems, #3715-SE) (human)

| pIC50 (DPP4) [2] [pIC50] | pIC50 (PREP) [3] [pIC50] | pIC50 Category (FACS) [4] [pIC50] | other results | Binder |
| --- | --- | --- | --- | --- |
|  |  |  | pIC50 Category (FACS) [1]: > 8 pIC50 | Hexanoyl-CPPTQFC-NH2 (linker 1-7 via tMeBn(InDOTA-AET); also: In-DOTA complex) [Hex-[Cys(tMeBn(InDOTA-AET))-Pro-Pro-Thr-Gln-Phe-Cys]-NH2] |
| < 6 | < 6 |  |  | CPPTEFC (N-terminal Hex; Cys1 and Cys7 linked as thioethers via 3MeBn; C-terminal NH2) [Hex-[Cys(3MeBn)-Pro-Pro-Thr-Glu-Phe-Cys]-NH2 (3BP-3287)] |
|  |  | < 6 |  | Hexanoyl-CPPTEAC-NH2 (linker 1-7 via mXylylene; SMILES CCCCCC(=O)N[C@H]1CSCc2cccc(c2)CSC[C@@H](C(N)=O)NC(=O)[C@H](C)NC(=O)[C@H](CCC(=O)O)NC(=O)[C@H]([C@@H](C)O)NC(=O)[C@@H]2CCCN2C(=O)[C@@H]2CCCN2C1=O) [Hex-[Cys(3MeBn)-Pro-Pro-Thr-Glu-Ala-Cys]-NH2] |
| < 6 | < 6 |  |  | CPPTQFCD (N-terminal Hex; Cys1 and Cys7 linked as thioethers via tMeBn(DOTA-AET); C-terminal NH2) [Hex-[Cys(tMeBn(DOTA-AET))-Pro-Pro-Thr-Gln-Phe-Cys]-Asp-NH2 (3BP-3426)] |
|  |  | < 6 | pIC50 Category (Activity) [5]: < 6 pIC50 | Hexanoyl-CPPTEFCD-NH2 (linker 1-7 via mXylylene; not fully specified (residue 5); printed as Hex-[Cys(3MeBn)-Pro-Pro-Thr-Glu(NH-Apr-DOTA')-Phe-Cys]-Asp-NH2) [Hex-[Cys(3MeBn)-Pro-Pro-Thr-Glu(NH-Apr-DOTA')-Phe-Cys]-Asp-NH2] |
|  |  | < 6 |  | Hexanoyl-CAPTEFC-NH2 (linker 1-7 via mXylylene; SMILES CCCCCC(=O)N[C@H]1CSCc2cccc(c2)CSC[C@@H](C(N)=O)NC(=O)[C@H](Cc2ccccc2)NC(=O)[C@H](CCC(=O)O)NC(=O)[C@H]([C@@H](C)O)NC(=O)[C@@H]2CCCN2C(=O)[C@H](C)NC1=O) [Hex-[Cys(3MeBn)-Ala-Pro-Thr-Glu-Phe-Cys]-NH2] |
| < 6 | < 6 |  |  | CPPTQFCD (N-terminal Hex; Cys1 and Cys7 linked as thioethers via 3MeBn; C-terminal NH2) [Hex-[Cys(3MeBn)-Pro-Pro-Thr-Gln-Phe-Cys]-Asp-NH2 (3BP-3476)] |
|  |  |  | pIC50 Category (Activity) [5]: > 8 pIC50; pIC50 Category (FACS) [1]: > 8 pIC50 | Hexanoyl-CPPTEFCD-NH2 (linker 1-7 via mXylylene; SMILES CCCCCC(=O)N[C@H]1CSCc2cccc(c2)CSC[C@@H](C(=O)N[C@@H](CC(=O)O)C(N)=O)NC(=O)[C@H](Cc2ccccc2)NC(=O)[C@H](CCC(=O)O)NC(=O)[C@H]([C@@H](C)O)NC(=O)[C@@H]2CCCN2C(=O)[C@@H]2CCCN2C1=O) [Hex-[Cys(3MeBn)-Pro-Pro-Thr-Glu-Phe-Cys]-Asp-NH2] |
